From publication PMC2873410 come the findings set out here.

What all share (assay): cross-linking; lysate (hypotonic buffer) of Sf9 cells expressing the V5-tagged protein, 0.01% glutaraldehyde at room temperature for various times; Western blot with anti-V5 antibody
(In general: A western blot detects proteins with antibodies after separation by electrophoresis.)

Test [1] deals with WSSV structural protein VP19, full length, V5- or FLAG-tagged (white spot syndrome virus (WSSV-TW strain)).
Test [2] concerns the target WSSV structural protein VP51A, full length, V5- or FLAG-tagged (white spot syndrome virus (WSSV-TW strain)).
The target of test [3] is WSSV structural protein VP24, full length, V5- or FLAG-tagged (white spot syndrome virus (WSSV-TW strain)).

As a reminder, the stoichiometry N is a count of units in the complex or per binding partner. On to “WSSV structural protein VP19, full length, V5- or FLAG-tagged (natural protein)”, for which, in test [1], the stoichiometry N stood at 2.

On to “WSSV structural protein VP51A, full length, V5- or FLAG-tagged (natural protein)”, for which, in test [2], the stoichiometry N is 2.

“WSSV structural protein VP24, full length, V5- or FLAG-tagged (natural protein)” registered a stoichiometry N in test [3] of 2.
